Earlier results in patent publication US6303637A, “Heterocyclic potassium channel inhibitors” (Merck & Co., Inc., priority 1999, dated 2001).

Biological target: T1, Kv 1.3 channels (Homo sapiens, UniProt P22001)
T1 construct: expressed in transfected cells; host or cells: CHO cells
Settings: margatoxin used at saturating concentration to establish the efflux window; read-out: IC50 (blocker of Kv 1.3 channels)

T1 sequence (P22001 whole entry): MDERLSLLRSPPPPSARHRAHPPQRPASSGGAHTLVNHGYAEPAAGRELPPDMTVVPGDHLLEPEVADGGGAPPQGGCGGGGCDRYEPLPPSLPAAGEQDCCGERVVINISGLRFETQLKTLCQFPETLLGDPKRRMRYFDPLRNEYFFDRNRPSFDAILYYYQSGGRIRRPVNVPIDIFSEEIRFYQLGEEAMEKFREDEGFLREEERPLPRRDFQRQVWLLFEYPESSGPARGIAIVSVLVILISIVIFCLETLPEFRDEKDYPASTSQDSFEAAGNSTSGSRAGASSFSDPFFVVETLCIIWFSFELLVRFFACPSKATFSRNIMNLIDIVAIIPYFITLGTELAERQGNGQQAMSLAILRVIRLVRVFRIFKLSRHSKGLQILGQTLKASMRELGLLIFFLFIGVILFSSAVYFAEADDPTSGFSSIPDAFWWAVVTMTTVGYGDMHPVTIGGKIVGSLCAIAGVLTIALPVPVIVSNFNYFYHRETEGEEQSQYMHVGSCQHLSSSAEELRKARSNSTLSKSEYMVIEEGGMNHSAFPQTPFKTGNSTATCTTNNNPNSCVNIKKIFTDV

margatoxin (TIINVKCTSPKQCLPPCKAQFGQSAGAKCMNGKCKCYPH; UniProt P40755 1-39, looked up)
IC50: 0.1 nM
